Read-outs that look alike come from different tables or passages of the source.
What was measured:
[1] = test system: mRNA transcribed from the transgene cassette; assay: Quantigene analysis of transgene mRNA expression in leaf samples; conditions: normalized to maize housekeeping genes, average of eight samples
Description: Leaf samples were collected from the plants containing transgene cassettes encoding MON-HT1, MON-HT2, and MON-HT8 with and without CTP sequences to determine expression of the mRNA transcribed from the transgene cassette encoding the engineered proteins. Quantigene® analysis was done on the leaf sample extracts to determine mRNA expression of the transgene cassette. For these assays, the probe was to the common 3′-UTR sequence present in each expression cassette used to generate the transgenic plants. Relative expression was calculated by normalizing to maize housekeeping genes. A leaf sample was collected from each of eight plants for each construct configuration used to make the transgenic plants, and the reported relative mRNA expression data is an average of the eight samples with standard error.

F1 hybrid maize plants = assay: trait efficacy field trial, quizalofop-P pressure screening, F1 hybrid; assay type: in vivo; conditions: crop injury percentage; for 4X Qizalofop-P CIPV4 / 4X Qizalofop-P CIPV8: 0.32 lb ai/acre at VE-V2, V4, V8; for 8X Qizalofop-P CIPV4 / 8X Qizalofop-P CIPV8: 0.64 lb ai/acre at VE-V2, V4, V8; for 16X Qizalofop-P CIPV4 / 16X Qizalofop-P CIPV8: 1.28 lb ai/acre at VE-V2, V4, V8
Experimental: Separate trait efficacy field trials for quizalofop-P and 2,4-D pressure screening were conducted at one location each with F1 hybrid transgenic plants produced by crossing an inbred plant containing maize event MON89034 with an R1 plant containing MON-HT1, MON-HT2, MON-HT8, MON-HT9, and MON-HT10 with and without operably linked CTP sequences. Transgenic F1 hybrid plants containing maize events NK603×MON89034 were used for comparison as a control.
In the trait efficacy field trial for quizalofop-P tolerance, one of three herbicide treatments was used: (1) quizalofop-P (Assure II) at 0.32 lb ai/acre (4×) plus 0.25% v/v non-ionic surfactant (NIS) applied at VE-V2 growth stage followed by the same at V4 growth stage followed by the same at V8 growth stage; (2) quizalofop-P at 0.64 lb ai/acre (8×) plus 0.25% v/v NIS applied at VE-V2 growth stage followed by the same at V4 growth stage followed by the same at V8 growth stage; or (3) quizalofop-P at 1.28 lb ai/acre (16×) plus 0.25% v/v NIS applied at VE-V2 growth stage followed by the same at V4 growth stage followed by the same at V8 growth stage. Plots were visually rated as above. […] The injury rating for the control plants after all quizalofop-P application was 100%. Error was calculated using LSD (0.05).

[2] = enzyme activity assay at 23° C. with purified enzyme; assay type: biochemical; conditions: for maximum activity as a percentage of the wild-type enzyme's activity, Haloxyfop: purified enzyme
Experimental: The enzyme activity of MON-HT protein variants with haloxyfop, fenoxaprop, fluazifop, and dichlorprop as substrates was determined using the enzyme activity assay conducted at 23° C. with purified enzyme. The activity was recorded as the maximum activity as a percentage of the wild-type enzyme's activity, which was set at 100%.

[3] = kinetic analysis, non-endpoint assay at 23° C.; assay type: biochemical
Procedure, shortened: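 Purified C-terminal 6-His-tagged recombinant enzymes expressed in bacteria; quizalofop-P or 2,4-D as substrate. Vmax reported as specific activity (umol herbicide product mg enzyme-1 min-1) and Km as mM herbicide substrate, with standard error.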

[4] = assay type: physicochemical; conditions: for T1/2, temperature where 50% of the protein was unfolded, Buffer: pH 7.5
Procedure, shortened: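 Thermal shift assay: purified enzyme in 30 mM Tris pH7.5, 150 mM NaCl, with or without 50 uM Fe2+ and 1.0 mM aKG. Unfolding followed by SYPRO orange fluorescence from 10° C. to 95° C. in 0.5° C. steps; melting temperature (T1/2) taken from the curve.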

[5] = 23° C., purified His-tagged protein, standard error in parenthetical
[6] = 23° C., purified His-tagged protein, standard error in parenthetical, read-out: Km Quizalofop
[7] = standard error in parenthetical, NDB = activity not robust enough for kinetic characterization
[8] = standard error in parenthetical, NDB = activity not robust enough for kinetic characterization, read-out: Km 2,4-D

B1: MON-HT1: engineered oxygenase protein, amino acid sequence SEQ ID NO:14 (protein)
chain: MHAALTPLTNKYRFIDVQPLTGVLGAEITGVDLREPLDDSTWNEILDAFHTYQVIYFPGQAITNEQHIAFSRRFGPVDPVPILKSIEGYPEVQMIRREANESSRFIGDDWHTDSTFLDAPPAAVVMRAIEVPEYGGDTGFLSMYSAWETLSPTMQATIEGLNVVHSATKVFGSLYQATNWRFSNTSVKVMDVDAGDRETVHPLVVTHPVTGRRALYCNQVYCQKIQGMTDAESKSLLQFLYEHATKFDFTCRVRWKKDQVLVWDNLCTMHRAVPDYAGKFRYLTRTTVAGDKPSR
Relative Expression ([1]; CTP A): 7.80
Relative Expression ([1]; CTP B): 5.95
Relative Expression ([1]; CTP C): 3.82
Relative Expression ([1]; no CTP): 4.31
4X Qizalofop-P CIPV4 (F1 hybrid maize plants; CTP A): 0
4X Qizalofop-P CIPV8 (F1 hybrid maize plants; CTP A): 7.5
8X Qizalofop-P CIPV4 (F1 hybrid maize plants; CTP A): 2.5
8X Qizalofop-P CIPV8 (F1 hybrid maize plants; CTP A): 10
16X Qizalofop-P CIPV4 (F1 hybrid maize plants; CTP A): 5
16X Qizalofop-P CIPV8 (F1 hybrid maize plants; CTP A): 15
4X Qizalofop-P CIPV4 (F1 hybrid maize plants; CTP B): 2.5
4X Qizalofop-P CIPV8 (F1 hybrid maize plants; CTP B): 5
8X Qizalofop-P CIPV4 (F1 hybrid maize plants; CTP B): 2.5
8X Qizalofop-P CIPV8 (F1 hybrid maize plants; CTP B): 7.5
16X Qizalofop-P CIPV4 (F1 hybrid maize plants; CTP B): 2.5
16X Qizalofop-P CIPV8 (F1 hybrid maize plants; CTP B): 20
4X Qizalofop-P CIPV4 (F1 hybrid maize plants; CTP C): 0
4X Qizalofop-P CIPV8 (F1 hybrid maize plants; CTP C): 5
8X Qizalofop-P CIPV4 (F1 hybrid maize plants; CTP C): 2.5
8X Qizalofop-P CIPV8 (F1 hybrid maize plants; CTP C): 10
16X Qizalofop-P CIPV4 (F1 hybrid maize plants; CTP C): 5
16X Qizalofop-P CIPV8 (F1 hybrid maize plants; CTP C): 20
4X Qizalofop-P CIPV4 (F1 hybrid maize plants; no CTP): 2.5
4X Qizalofop-P CIPV8 (F1 hybrid maize plants; no CTP): 10
8X Qizalofop-P CIPV4 (F1 hybrid maize plants; no CTP): 10
8X Qizalofop-P CIPV8 (F1 hybrid maize plants; no CTP): 22.5
16X Qizalofop-P CIPV4 (F1 hybrid maize plants; no CTP): 22.5
16X Qizalofop-P CIPV8 (F1 hybrid maize plants; no CTP): 37.5
maximum activity as a percentage of the wild-type enzyme's activity, Fluazifop ([2]; wild-type set at 100%): 67%
Vmax for 2,4-D higher than that of the wild-type enzyme [3]: 9.5 fold
Vmax for quizalofop-P relative to the wild-type enzyme ([3]; 23° C.): about half
Vmax Quizalofop [3, 5]: 0.76 (−0.04) umol herbicide product mg enzyme-1 min-1
Km [3, 6]: 170 µM
Vmax 2,4-D ([3]; Table 10 series, unit as defined): 1.17 (0.01) umol herbicide product mg enzyme-1 min-1
Km ([3]; Table 10 series, unit as defined, read-out: Km 2,4-D): 30 µM
Vmax Quizalofop ([3]; Table 10 series, 23° C., unit as defined): 1.62 (0.05) umol herbicide product mg enzyme-1 min-1
Km ([3]; Table 10 series, 23° C., unit as defined, read-out: Km Quizalofop): 120 µM
Vmax 2,4-D [3, 7]: 0.95 (−0.03) umol herbicide product mg enzyme-1 min-1
Km [3, 8]: 30 µM
Melting temp, Buffer ([4]; Table 11 series): 58 °C
Melting temp, Buffer plus Fe2+ and aKG ([4]; Table 11 series): 62 °C
T1/2, temperature where 50% of the protein was unfolded, Buffer plus Fe2+ and aKG [4]: 59 °C
T1/2, temperature where 50% of the protein was unfolded, Buffer [4]: 56 °C

B2: MON-HT8: engineered oxygenase protein, amino acid sequence SEQ ID NO:37 (protein)
chain: MHAALTPLTNKYRFIDVQPLTGVLGAEITGVDLREPLDDSTWNEILDAFHTYQVIYFPGQAITNEQHIAFSRRFGPVDPVPILKSIEGYPEVQMIRREANESGRVIGDDWHTDSTFLDAPPAAVVMRAIEVPEYGGDTGFLSMYSAWETLSPTMQATIEGLNVVHSATKVFGSLYQATNWRFSNTSVKVMDVDAGDRETVHPLVVTHPVTGRRALYCNQVYCQKIQGMTDAESKSLLQFLYEHATKFDFTCRVRWKKDQVLVWDNLCTMHRSVPDYGNAFRYLTRTTVAGDKPSR
Relative Expression ([1]; CTP A): 8.06
Relative Expression ([1]; CTP B): 7.62
Relative Expression ([1]; CTP C): 4.87
4X Qizalofop-P CIPV4 (F1 hybrid maize plants; CTP A): 15
4X Qizalofop-P CIPV8 (F1 hybrid maize plants; CTP A): 15
8X Qizalofop-P CIPV4 (F1 hybrid maize plants; CTP A): 37.5
8X Qizalofop-P CIPV8 (F1 hybrid maize plants; CTP A): 35
16X Qizalofop-P CIPV4 (F1 hybrid maize plants; CTP A): 60
16X Qizalofop-P CIPV8 (F1 hybrid maize plants; CTP A): 50
4X Qizalofop-P CIPV4 (F1 hybrid maize plants; CTP B): 5
4X Qizalofop-P CIPV8 (F1 hybrid maize plants; CTP B): 7.5
8X Qizalofop-P CIPV4 (F1 hybrid maize plants; CTP B): 32.5
8X Qizalofop-P CIPV8 (F1 hybrid maize plants; CTP B): 35
16X Qizalofop-P CIPV4 (F1 hybrid maize plants; CTP B): 27.5
16X Qizalofop-P CIPV8 (F1 hybrid maize plants; CTP B): 30
4X Qizalofop-P CIPV4 (F1 hybrid maize plants; CTP C): 55
4X Qizalofop-P CIPV8 (F1 hybrid maize plants; CTP C): 45
8X Qizalofop-P CIPV4 (F1 hybrid maize plants; CTP C): 75
8X Qizalofop-P CIPV8 (F1 hybrid maize plants; CTP C): 55
16X Qizalofop-P CIPV4 (F1 hybrid maize plants; CTP C): 85
16X Qizalofop-P CIPV8 (F1 hybrid maize plants; CTP C): 72.5
maximum activity as a percentage of the wild-type enzyme's activity, Haloxyfop ([2]; wild-type set at 100%): 99%
maximum activity as a percentage of the wild-type enzyme's activity, Fluazifop ([2]; wild-type set at 100%): 50%
Vmax Quizalofop [3, 5]: 0.46 (−0.02) umol herbicide product mg enzyme-1 min-1
Km [3, 6]: 110 µM
Vmax 2,4-D [3, 7]: 0.11 (−0.01) umol herbicide product mg enzyme-1 min-1
Km [3, 8]: 140 µM
T1/2, temperature where 50% of the protein was unfolded, Buffer plus Fe2+ and aKG [4]: 61 °C
T1/2, temperature where 50% of the protein was unfolded, Buffer [4]: 61 °C

B3: MON-HT9: engineered oxygenase protein, amino acid sequence SEQ ID NO:40 (protein)
chain: MHAALTPLTNKYRFIDVQPLTGVLGAEITGVDLREPLDDSTWNEILDAFHTYQVIYFPAQQITNEQHISFSRRFGPVDPVPLLKSIEGYPEVQMIRREANESGRILGDDWHTDSTFLDAPPAAVVMRAIEVPEYGGDTGFLSMYSAWDTLSDTMKATIEGLNVVHSATRVFGSLYQAQNWRFSNTSVKVMDVDAGDRETVHPLVVSHPVTGRRALYCNQVYCQRIEGMTDAESKCLLQFLYEHATKFDFTCRVRWKKDQVLVWDNLCTMHRAVPDYAGKFRYLTRTTVAGDRPAR
4X Qizalofop-P CIPV4 (F1 hybrid maize plants; CTP A): 0
4X Qizalofop-P CIPV8 (F1 hybrid maize plants; CTP A): 5
8X Qizalofop-P CIPV4 (F1 hybrid maize plants; CTP A): 2.5
8X Qizalofop-P CIPV8 (F1 hybrid maize plants; CTP A): 15
16X Qizalofop-P CIPV4 (F1 hybrid maize plants; CTP A): 7.5
16X Qizalofop-P CIPV8 (F1 hybrid maize plants; CTP A): 20
maximum activities for all four substrates compared with the wild-type enzyme ([2]; haloxyfop, fenoxaprop, fluazifop and dichlorprop): lower than, or equal to
maximum activity as a percentage of the wild-type enzyme's activity, Haloxyfop ([2]; wild-type set at 100%): 91%
maximum activity as a percentage of the wild-type enzyme's activity, Dichlorprop ([2]; wild-type set at 100%): 19%
maximum activity as a percentage of the wild-type enzyme's activity, Fenoxaprop ([2]; wild-type set at 100%): 67%
maximum activity as a percentage of the wild-type enzyme's activity, Fluazifop ([2]; wild-type set at 100%): 41%
Vmax Quizalofop [3, 5]: 0.53 (−0.02) umol herbicide product mg enzyme-1 min-1
Km [3, 6]: 100 µM
Km 2,4-D [3, 7]: NDB
Vmax 2,4-D [3, 7]: NDB
T1/2, temperature where 50% of the protein was unfolded, Buffer plus Fe2+ and aKG [4]: 60 °C
T1/2, temperature where 50% of the protein was unfolded, Buffer [4]: 61 °C

B4: MON-HT10: engineered oxygenase protein, amino acid sequence SEQ ID NO:43 (protein)
chain: MHAALTPLTNKYRFIDVQPLCGVLGAEITGVDLREPLDDSTWNEILDAFHTYQVIYFPGQAITNEQHIAFSRRFGPVDPVPLLKSIEGYPEVQMIRREANESGRILGDDWHTDSTFLDAPPAAVVMRAIEVPEYGGDTGFLSMYSAWDTLSDTMKATIEGLNVVHSATRVFGSLYQAQNWRFSNTSVKVMDVDAGDRETVHPLVVSHPVTGRRALYCNQVYCQRIEGMTDAESKCLLQFLYEHATKFDFTCRVRWKKDQVLVWDNLCTMHLAVPDYDGKFRYLTRTTVAGDKPSR
4X Qizalofop-P CIPV4 (F1 hybrid maize plants; CTP A): 0
4X Qizalofop-P CIPV8 (F1 hybrid maize plants; CTP A): 5
8X Qizalofop-P CIPV4 (F1 hybrid maize plants; CTP A): 2.5
8X Qizalofop-P CIPV8 (F1 hybrid maize plants; CTP A): 10
16X Qizalofop-P CIPV4 (F1 hybrid maize plants; CTP A): 5
16X Qizalofop-P CIPV8 (F1 hybrid maize plants; CTP A): 21
maximum activity as a percentage of the wild-type enzyme's activity, Dichlorprop ([2]; wild-type set at 100%): 29%
maximum activity as a percentage of the wild-type enzyme's activity, Fluazifop ([2]; wild-type set at 100%): 48%
Vmax Quizalofop [3, 5]: 0.78 (−0.05) umol herbicide product mg enzyme-1 min-1
Km [3, 6]: 130 µM
Km 2,4-D [3, 7]: NDB
Vmax 2,4-D [3, 7]: NDB
T1/2, temperature where 50% of the protein was unfolded, Buffer plus Fe2+ and aKG [4]: 44 °C
T1/2, temperature where 50% of the protein was unfolded, Buffer [4]: 44 °C

— US12723255B2, “Herbicide tolerance genes and methods of use thereof” (priority 2014, dated 2026)
